Values joined by “and” are separate entries in the source; they are usually repeats but may differ in a detail not shown here. Identical values can stand only once. Where no end group is shown, it is not given here.
T1: MED25 ACID (residues Leu389-Asn543), recombinant (human, UniProt Q71SY5 389-543)
T1 sequence: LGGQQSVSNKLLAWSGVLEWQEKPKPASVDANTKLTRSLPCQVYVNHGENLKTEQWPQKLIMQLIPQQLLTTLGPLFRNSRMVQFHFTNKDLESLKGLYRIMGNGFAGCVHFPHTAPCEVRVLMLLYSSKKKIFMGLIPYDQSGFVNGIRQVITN

B1: GST-ATF6αTAD (residues 1-150) (domain or fragment)
chain: MGEPAGVAGTMESPFSPGLFHRLDEDWDSALFAELGYFTDTDELQLEAANETYENNFDNLDFDLDLMPWESDIWDINNQICTVKDIKAEPQPLSPASSSYSVSSPRSVDSYSSTQHVPEELDLSSSSQMSPLSLYGENSNSLSSAEPLKE

Experiments:
[1] = target: T1, MED25 ACID (residues Leu389-Asn543), …; assay: pull-down
[2] = target: T1, MED25 ACID (residues Leu389-Asn543), …; assay: NMR titration

Binder | binding result [1] | Kd [2] | apparent Kd, second site of lower affinity (H1 face) [2]
B1 | binds |  | 
Ac-SDSTMTNYMNQLSELLGFDLNP [N-acetylated NS1 α3 peptide (RSV NS1 residues Ser118-Pro139)] |  | 17 ± 8 µM | 200 µM and 1000 µM
